Test results: the supplement of paper PMC12042874
± gives the uncertainty stated by the source.

Assay: amyloid nucleation score (Sup35N fusion, yeast selection) (log enrichment); library NNK1; higher = more nucleation; inactive = no reads after selection
Outline: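 The nucleation score equals the log enrichment of output over input reads from DiMSum, centred on the mode score of non-aggregating sequences. It was computed only for sequences with 100 or more input reads. The reads came from Illumina sequencing of plasmid inserts from psi-negative yeast expressing Sup35N fused to peptides of 20 random codons, induced with 100 μM copper sulfate for 24 hours and grown 7 days at 30°C without adenine and uracil.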

Substance	amyloid nucleation score
SGHTVVMVMNMCCVSFHLRC	6.562 ± 0.048
SGIPSVLATGYSYKF	-0.273 ± 0.29
SGIYGCSGRQDIKSKNYGSR	1.12 ± 0.56
SGMVLNNQSS	-0.763 ± 0.79
SGNMNSLYWKSQKCNSYSFP	0.935 ± 1.1
SGRWLYVLVPICMPYVAELS	inactive
SGSDVILAYTPTPPGDSPVW	0.645 ± 0.61
SGSLGS	0.386 ± 0.84
SGTQKNRCTSLMQC	0.709 ± 0.53
SGTRFLFEPSELINPYNHRC	1.15 ± 0.68
SGTSLPNITLLDTFCTRCFV	-0.095 ± 0.22
SGWIRLL	0.66 ± 0.36
SGYSRGKEEQKHQFA	0.137 ± 0.6
SHAFRITS	0.619 ± 0.85
SHCCR	inactive
SHDFVVIISNCR	5.57 ± 0.093
SHFFLIT	-0.48 ± 1.5
SHFVLMLFENSIIVCLEDWE	1.91 ± 0.57
SHKGNPCRKIC	-0.392 ± 0.38
SHLLGINCCCA	0.131 ± 0.85
SHPFTFSCAHILLWMSLRRF	0.276 ± 0.45
SHPTNFSCIVVSARQGVKKI	-0.148 ± 0.79
SHTADFRVLLRLIQYERGLR	3.44 ± 0.18
SHTLHDAIYGVDVQPFDTRV	0.102 ± 0.66
SHVPEVGVGSDAVFLANKGI	-0.855 ± 0.69

Substance	amyloid nucleation score
SIAFYFFKPLYVLVPNMFGY	6.15 ± 0.073
SICTCKWYVSVWWAIWRINN	1.59 ± 0.42
SIDWRAEMNSLSM	-0.109 ± 0.24
SIEGRSSIQATMCSMLLNGP	-0.197 ± 0.39
SIFLCVSLSVTCETILAGLD	2.8 ± 0.16
SIGWYTQGRYVGMCHRN	0.251 ± 0.53
SIIIGMRLCHHVRSAYTNEL	3.21 ± 0.18
SINVVLAINGTAHCNFSASL	4.66 ± 0.067
SIPLCTLESQSEKVTWISDQ	0.325 ± 0.78
SIRTLQDNSTSSENFKVESV	0.273 ± 0.64
SITLS	-0.926 ± 1.8
SIVGLNQ	0.742 ± 0.43
SIVRTDDIARLSLMLGRRSV	-0.724 ± 0.56
SIYRHDA	-0.053 ± 1.1
SIYRYLCGRFDCLWILPCEH	1.29 ± 0.84
SKCCDSSRARVASSYS	0.261 ± 0.36
SKETAFGLSL	-0.368 ± 0.54
SKKSMYFLVRNWSQNLTRAG	2.21 ± 0.63
SKLCVCGTASLLHYTVTERV	5.29 ± 0.11
SKLYLIEVFLYA	-0.468 ± 0.66
SKMDGVATRYRYNAMRADVK	0.181 ± 0.2
SKQGRCLTFYQYVSLIISSM	-0.022 ± 0.18
SKSRLL	0.006 ± 0.4
SKSTYSLIGLGTFISRFNGN	1.03 ± 0.36
SKTRVLM	-0.374 ± 0.41

Substance	amyloid nucleation score
SKTSKWYPTDKLNTGALFLK	-0.321 ± 0.34
SKVCE	0.085 ± 0.66
SKYIGVVSPTWLH	0.428 ± 1.2
SLCFYGEQIFHN	2.24 ± 0.17
SLFAQKS	-0.273 ± 0.32
SLFQGERIPFGWNEGQTKDV	-0.469 ± 1.2
SLGCYCRVKIVWVCILGYTA	0.526 ± 0.27
SLGGVGRTTHNILCEADSGA	1.44 ± 0.38
SLGKLYAGDGVCMGTLPDSK	0.017 ± 0.56
SLIFCSYSNDLFHSWNHKFR	-0.068 ± 0.7
SLIGYVIKW	-0.095 ± 0.63
SLKGFADSVSGSVGLKDKAV	0.502 ± 0.61
SLLCLCYV	7.599 ± 0.059
SLLCTIYRVCADPYMGQNMT	inactive
SLLDMIYVIDTTTKNCILSK	0.983 ± 0.35
SLLDSEGVRYLIMEL	0.102 ± 0.4
SLLDWCYINRHM	0.604 ± 0.44
SLLGPIGIIQTWIPTHLDLF	inactive
SLLRRA	0.575 ± 0.71
SLLTCILGFPSCPGASMMFQ	7.057 ± 0.067
SLNGMTYVSMIVRSD	1.41 ± 0.39
SLNSMVSLTWVRRDYTIWKR	0.001 ± 0.23
SLPAEYSRRPKWVGASTVDW	0.527 ± 0.55
SLPRPIMFSLVVIILYNFVR	-0.333 ± 0.47
SLRDACFGVNI	-0.091 ± 0.29

Substance	amyloid nucleation score
SLRLARNGYIYAICRFLCYS	-1.15 ± 2.7
SLRYSLCRL	0.328 ± 0.24
SLSQFSKPGYICVNMVCSQA	1.36 ± 0.48
SLSQG	0.441 ± 0.93
SLTCWG	0.436 ± 0.33
SLTFVPTLFTCMDLMHC	7.415 ± 0.067
SLVASNSQL	0.06 ± 0.45
SLVDGSHNNFRGWVPIVVQG	-0.079 ± 0.99
SLVNFVAMGARDRIPCVYKR	-1.03 ± 2.4
SLVRMLRHLRMDEKFLLIRY	0.268 ± 0.53
SLVWVCFWGICI	6.67 ± 0.088
SLYLGNSGSDLGD	0.2 ± 1.1
SLYRIFRKASFESCGLEWFA	0.191 ± 0.66
SMAFGCWSVGWYRGMMSVCQ	1.16 ± 0.6
SMFCARLDTRVSRTGFPDRG	-0.557 ± 0.61
SMFLLRPYRVCFCSRRFVTV	0.253 ± 0.77
SMLAFQMITKQRQHSFWMWT	-0.766 ± 0.39
SMLALGFPSVNCQWTGATFS	1.22 ± 0.97
SMSFRCLDAKDVPDRASQGY	-0.385 ± 0.39
SMSPWDFNICCMNVCTTLLT	2.77 ± 0.25
SMSSSWG	0.19 ± 0.56
SMVAPRPANVRVRLVGRGST	0.354 ± 0.51
SNCVIVSQLKITDA	-0.184 ± 0.44
SNDKHKIRIYAGYFFVQRGC	0.312 ± 0.37
SNFKK	-1.06 ± 0.64

Substance	amyloid nucleation score
SNFLHCIVIILWLCFNL	0.53 ± 0.71
SNGCPFDTIDQAKVGTVV	0.861 ± 0.68
SNGRFWYMADSVST	inactive
SNIASNKKVIMINHFKGFSL	3.58 ± 0.057
SNKDLKSLTICRSTQHWTVL	0.095 ± 0.27
SNLRSVMKRNYTVRLFCVG	inactive
SNNHQFFCDTFDIGWWEVGR	-1.63 ± 2.4
SNQRKYGAPVKSLWEIFKSE	1.34 ± 0.93
SNSFRLGGSNNYPMSSAPGL	-1.74 ± 2.4
SNSLCETWSRWWKRMFTDTF	0.179 ± 0.48
SNSLTFYFSKCYTSCSNLLG	6.079 ± 0.057
SNSRGYSWRDTGTNLRGYPE	-0.238 ± 1.5
SNSSVSW	0.717 ± 0.57
SNTEP	-0.487 ± 0.57
SNVDSWFGRVTSA	-0.698 ± 0.33
SPAFQWHLYPSA	0.592 ± 0.87
SPCWSHF	inactive
SPEGWYFRTTWLVA	inactive
SPFLSAFLSFLTSFYLIFMG	-0.164 ± 0.61
SPFMGCLYNLLDLDDGS	-0.65 ± 0.51
SQCSSLIHAIEMDRFVF	0.276 ± 0.23
SQKEFRKTAIKTHLMFRIHL	-0.258 ± 0.29
SQRTWCLLGIGSTITRIHFG	2.74 ± 0.23
SQSRRVSGQQDGPQMYSNGP	-0.232 ± 0.36
SQYDWLKLFSNVY	-0.175 ± 0.21

Substance	amyloid nucleation score
SRASKYMYVWVVLITFHCLR	inactive
SRFKPWGGSFVGYCVLYGRL	-1.01 ± 0.71
SRFMGTNN	0.102 ± 0.84
SRFPYKKSVRTDSGRMSM	-0.393 ± 0.86
SRGFKPMPGQYFCKG	0.165 ± 0.26
SRGVQGMYDDYKDGGLLYLV	-0.228 ± 0.19
SRLQLNWLQPRWY	4.27 ± 0.077
SRLYVCFALSSLSISRNNYG	3.11 ± 0.22
SRNRLFVRRVRLANSLSFNA	-0.226 ± 1.1
SRPSQCYINAFMFSMFKSGN	inactive
SRRSENYFSGANRIGHGGST	0.54 ± 0.4
SRTTAVSYLGNGFVI	-0.573 ± 0.42
SRTVVTYHQLTWHGVGYMV	0.571 ± 1.2
SRVFLCCAMCLRRNSGYGR	-0.362 ± 0.4
SRVSLFGWSGFKFTSRDSWL	3.51 ± 0.18
SRWGPRL	-0.494 ± 0.71
SRWKLGGGDL	0.006 ± 0.64
SRYQEYRFQMCMMECMRRLA	0.115 ± 1
SRYWSLYGGIIVVSRSRTGR	0.45 ± 0.32
SSCSYLGRDRMCFWPYFLTT	0.016 ± 0.39
SSDKLCAYFVREIWTQGAGW	0.507 ± 0.54
SSFARL	1.12 ± 0.55
SSFIWMNC	-0.377 ± 0.42
SSFLASGL	-0.529 ± 1.3
SSFRVGTIVTNSAWRWSPCW	5.4 ± 0.062

Substance	amyloid nucleation score
SSGFSTMYIK	-0.892 ± 2.1
SSLGAIYGLINQRPA	0.776 ± 1
SSLLKWWDIVMKGEVIHGWC	-0.095 ± 0.47
SSLRPRKCCWRKTRRLSKGG	0.441 ± 0.67
SSMNSWTDFFHFCST	0.032 ± 0.97
SSNSGYSWSFTAWMGLGMRR	-0.037 ± 1.7
SSPVRGASKSSRGSTNVHAN	0.29 ± 1.1
SSRCY	0.104 ± 0.85
SSRNRV	-1.07 ± 0.59
SSSEGRWMGYGP	-0.276 ± 0.53
SSSHDSIVFVRRLPHYCRGF	0.323 ± 0.43
SSVARIIWKFCRFSTVGVCF	0.858 ± 0.59
SSVCGKL	-0.211 ± 0.7
SSVPHFAGSVVASDPPLYRL	0.949 ± 0.81
SSVSPIHHRLYKTETPMWLT	-0.369 ± 0.58
SSYAVSTSSPCLSATSARLK	0.893 ± 0.98
STAAVHCRMRTRFQLRRLRD	-0.086 ± 0.35
STFAAFSNTVYASCQYLLNG	-1.14 ± 0.93
STFSLTSRASHKVPQDRYFP	0.353 ± 0.61
STKSTQDSSSDFIAVCGKRE	0.925 ± 1.1
STLLYGLLAYWTYGFAWLFF	inactive
STLPMHRNMTLRRLSCVQSY	-0.069 ± 0.34
STLSAYCPTILA	0.171 ± 0.25
STNECSLLMGDSCGHHRSHC	-0.171 ± 0.9
